Numbering of substitutions follows the chain as printed.

Usually Kd stands for the constant that tells how readily two partners part at equilibrium. The low end stands for tighter binding, the high end for weaker binding.

Assay [1] addresses MCL-1 (endogenous, in human multiple myeloma cells such as NCI-H929) (human, UniProt Q07820 1-350). The assay can be described thus: cell-based or functional assay.
Assay [2] has as its target T1, human serum albumin (human, UniProt P02768 25-609).
T1 construct: also called HSA
The assay can be described thus: solution ELISA, KD 310 nM against 7.5 nM. Here is the method:
(§1) A Nunc plate was blocked O/N with PBS+2% skimmed milk in PBS at 4° C. […] In addition, a ‘calibrator’ dilution series of CPAB (seven 3-fold dilutions starting at 100 nM plus a blank) in 100 mM TRIS+100 mM NaCl+1% BSA at pH 7.4 was prepared. The albumin-CPAB mixtures and the calibrator series were then transferred to the ELISA plate in duplicate (two columns for each series) and incubated for another 30 min at RT while shaking. Detection of plate-bound CPAB was performed with 1/5000 anti-V5-HRP (Invitrogen. R961-25) in PBS+0.1% BSA for 30 min at RT while shaking. After each incubation step, the plate was washed 4× with PBS containing 0.05% Tween 20.
For orientation: In an ELISA, binding on a coated surface is turned into a signal by an enzyme label.

For assay [3], the target named is T1, human serum albumin. The assay can be described thus: solution ELISA, free CPAB detected on milk-blocked plate. As to the method:
as §1

Assay [4] deals with T2, mouse serum albumin (mouse, UniProt P07724 25-608).
T2 construct: also called MSA
The description is as above. As to the method: as §1

The target of assay [5] is T3, GST-tagged MCL-1 (GST-MCL-1 fusion protein, MCL-1 residues Asp172-Gly327) (human, UniProt Q07820 173-327).
T3 construct: not shown: Glutathione S-transferase fusion partner from the pET42 vector (Novagen)
The assay can be described thus: solution ELISA, free GST-MCL-1 captured on Alphabody phage. Here is the method: A Nunc plate was coated with 1 μg/mL anti-M13 (Fischer Scientific) in PBS for 2 h at room temperature (RT). The plate was then blocked with 2% skimmed milk in PBS for 2 h at RT while shaking. […] After each incubation step, the plate was washed 4× with PBS containing 0.05% Tween 20, except after the incubation step of the mixture and calibrator samples where the plate was washed 12 times. The plate was developed with Sure Blue and the reaction was stopped with H₂SO₄. Optical densities (ODs) were read at 450 nm.

T3 sequence (Q07820 173-327): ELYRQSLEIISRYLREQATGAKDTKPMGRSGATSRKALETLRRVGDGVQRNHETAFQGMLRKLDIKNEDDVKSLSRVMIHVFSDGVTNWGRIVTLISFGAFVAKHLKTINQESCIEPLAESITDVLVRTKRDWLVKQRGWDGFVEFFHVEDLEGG
T2 sequence (P07724 25-608 limits assumed): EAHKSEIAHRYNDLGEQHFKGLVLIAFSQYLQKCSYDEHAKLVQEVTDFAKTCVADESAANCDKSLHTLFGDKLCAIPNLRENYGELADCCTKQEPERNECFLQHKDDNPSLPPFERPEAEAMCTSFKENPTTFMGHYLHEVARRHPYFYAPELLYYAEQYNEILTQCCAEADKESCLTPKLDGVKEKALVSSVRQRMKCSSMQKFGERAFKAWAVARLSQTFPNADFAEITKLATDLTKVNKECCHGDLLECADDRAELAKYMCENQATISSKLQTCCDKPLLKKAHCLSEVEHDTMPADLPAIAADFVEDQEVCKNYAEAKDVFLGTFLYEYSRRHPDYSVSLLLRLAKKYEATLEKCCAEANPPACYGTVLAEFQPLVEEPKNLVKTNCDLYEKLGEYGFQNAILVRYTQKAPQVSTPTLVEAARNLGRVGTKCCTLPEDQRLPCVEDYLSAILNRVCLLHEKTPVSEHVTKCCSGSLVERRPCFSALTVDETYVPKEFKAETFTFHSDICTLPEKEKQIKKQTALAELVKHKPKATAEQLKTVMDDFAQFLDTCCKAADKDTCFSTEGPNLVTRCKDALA
Chain of MCL-1 (endogenous, in human multiple myeloma cells such as NCI-H929) (Q07820 whole entry): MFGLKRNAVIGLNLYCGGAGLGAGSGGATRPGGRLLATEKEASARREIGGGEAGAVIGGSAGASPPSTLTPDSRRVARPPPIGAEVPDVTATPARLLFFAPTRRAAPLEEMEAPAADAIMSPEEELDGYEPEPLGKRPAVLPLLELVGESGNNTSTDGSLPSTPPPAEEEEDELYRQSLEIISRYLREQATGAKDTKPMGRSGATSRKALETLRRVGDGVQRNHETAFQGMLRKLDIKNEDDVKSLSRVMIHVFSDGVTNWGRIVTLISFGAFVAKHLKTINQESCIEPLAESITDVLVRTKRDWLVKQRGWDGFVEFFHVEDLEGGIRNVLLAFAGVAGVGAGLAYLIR

B1: Alphabody CMPX-383B (designed binder)
chain: MGHHHHHHHHHHSSGHIEGRHGPRPRPRPRPRPRPRPGGMSTEQIQKRTAAIQKRIAAIQKRIYAMTASGGAGAAGAGAGMSIEEITKQIAAIQLRIVGDQVQIAYQTASGAGAGAGGMSTEEIQKQIAAIETQICKIEAAIELKEAGITSDFYFELINKAKTCEAVEALKEHILAAHTPRPRPRPRPRPRPRPGSGKPIPNPLLGLDST
notes: an engineered disulfide bond links helix E to helix C; Has Ala at the position called 40
Regarding B1, in assay [1], the “in vitro IC50 on MM cell line MOLP-8” value is 0.82 µM. Further, in assay [1], the “in vitro IC50 on MM cell line NCI-H929” value is 0.45 µM. For the same molecule, the “fold reduction in affinity against the Gly40 form” value in assay [2] was determined as 40 fold. Besides, the results for the equilibrium dissociation constant (Kd) in assay [3], in assay [4] and in assay [5] were 310 nM, 2250 nM and 0.028 nM, respectively.

B2: CMPX_383B_Gly40 (designed binder)
chain: B1 chain with A166G
Turning to B2, the equilibrium dissociation constant (Kd) was 7.5 nM in assay [3], 298 nM in assay [4] and 0.043 nM in assay [5].
